# Publication PMC2739136
# T1: MBP-TraR A157V, P33905
# T1 chain: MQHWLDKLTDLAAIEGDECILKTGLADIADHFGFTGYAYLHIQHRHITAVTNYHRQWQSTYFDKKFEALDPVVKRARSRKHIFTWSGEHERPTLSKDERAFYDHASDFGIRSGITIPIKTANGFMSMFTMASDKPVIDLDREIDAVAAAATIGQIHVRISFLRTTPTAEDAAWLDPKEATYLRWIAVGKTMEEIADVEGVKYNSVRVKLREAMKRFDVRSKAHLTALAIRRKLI
# T2: MBP-TraR R206Q, P33905
# T2 chain: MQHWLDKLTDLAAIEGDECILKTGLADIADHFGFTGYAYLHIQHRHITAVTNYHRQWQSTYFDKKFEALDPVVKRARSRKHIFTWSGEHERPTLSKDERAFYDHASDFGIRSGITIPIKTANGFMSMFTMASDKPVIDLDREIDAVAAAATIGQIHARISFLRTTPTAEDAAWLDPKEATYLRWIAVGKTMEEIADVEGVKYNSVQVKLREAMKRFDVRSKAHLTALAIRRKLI
# T3: MBP-TraR T225S, P33905
# T3 chain: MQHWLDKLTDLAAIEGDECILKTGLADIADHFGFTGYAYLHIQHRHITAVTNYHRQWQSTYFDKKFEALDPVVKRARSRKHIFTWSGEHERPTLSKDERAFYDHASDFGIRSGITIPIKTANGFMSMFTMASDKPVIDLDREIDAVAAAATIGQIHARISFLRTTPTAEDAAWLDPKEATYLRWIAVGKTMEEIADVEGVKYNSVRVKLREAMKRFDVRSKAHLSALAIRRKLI
# T4: MBP-TraR F161K, P33905
# T4 chain: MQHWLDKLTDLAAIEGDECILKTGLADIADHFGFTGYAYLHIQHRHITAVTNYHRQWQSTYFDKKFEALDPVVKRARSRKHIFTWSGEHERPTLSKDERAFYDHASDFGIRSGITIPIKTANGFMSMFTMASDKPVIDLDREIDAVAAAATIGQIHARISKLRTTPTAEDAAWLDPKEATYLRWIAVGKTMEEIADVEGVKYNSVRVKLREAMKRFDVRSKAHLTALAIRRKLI
# T5: MBP-TraR A150E, P33905
# T5 chain: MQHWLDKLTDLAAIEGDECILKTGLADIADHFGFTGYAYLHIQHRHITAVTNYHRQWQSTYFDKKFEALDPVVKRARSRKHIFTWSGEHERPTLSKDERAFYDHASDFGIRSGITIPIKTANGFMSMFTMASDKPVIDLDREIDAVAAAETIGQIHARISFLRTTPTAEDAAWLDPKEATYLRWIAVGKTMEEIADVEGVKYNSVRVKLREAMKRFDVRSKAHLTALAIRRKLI
# T6: MBP-TraR S160A, P33905
# T6 chain: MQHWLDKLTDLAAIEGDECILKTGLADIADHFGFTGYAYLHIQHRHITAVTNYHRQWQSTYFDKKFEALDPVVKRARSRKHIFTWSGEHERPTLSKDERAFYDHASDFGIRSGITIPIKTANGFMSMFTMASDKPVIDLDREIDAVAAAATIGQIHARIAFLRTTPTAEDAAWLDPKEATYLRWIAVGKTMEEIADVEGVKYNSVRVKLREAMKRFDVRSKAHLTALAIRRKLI
# T7: MBP-TraR K119A, P33905
# T7 chain: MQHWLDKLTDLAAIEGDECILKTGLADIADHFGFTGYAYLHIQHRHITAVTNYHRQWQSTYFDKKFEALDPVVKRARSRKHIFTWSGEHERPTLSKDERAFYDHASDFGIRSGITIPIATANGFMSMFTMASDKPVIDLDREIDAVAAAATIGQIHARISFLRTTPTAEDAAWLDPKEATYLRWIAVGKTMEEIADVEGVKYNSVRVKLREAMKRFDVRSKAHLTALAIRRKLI
# T8: MBP-TraR F161A, P33905
# T8 chain: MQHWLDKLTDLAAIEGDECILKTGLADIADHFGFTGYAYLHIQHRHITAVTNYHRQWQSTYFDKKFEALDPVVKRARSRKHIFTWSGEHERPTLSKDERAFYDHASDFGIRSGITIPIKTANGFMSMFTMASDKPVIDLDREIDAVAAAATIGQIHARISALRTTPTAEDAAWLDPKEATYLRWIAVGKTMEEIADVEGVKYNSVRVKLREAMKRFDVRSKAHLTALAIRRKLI
# B1: native TraR (wild type) (protein)
# chain: MQHWLDKLTDLAAIEGDECILKTGLADIADHFGFTGYAYLHIQHRHITAVTNYHRQWQSTYFDKKFEALDPVVKRARSRKHIFTWSGEHERPTLSKDERAFYDHASDFGIRSGITIPIKTANGFMSMFTMASDKPVIDLDREIDAVAAAATIGQIHARISFLRTTPTAEDAAWLDPKEATYLRWIAVGKTMEEIADVEGVKYNSVRVKLREAMKRFDVRSKAHLTALAIRRKLI
# Legend:
# Assay in all cases: pull-down
# MBP-TraR A157V, P33905 = biological target: T1, MBP-TraR A157V, P33905
# MBP-TraR R206Q, P33905 = biological target: T2, MBP-TraR R206Q, P33905
# MBP-TraR T225S, P33905 = biological target: T3, MBP-TraR T225S, P33905
# MBP-TraR F161K, P33905 = biological target: T4, MBP-TraR F161K, P33905
# MBP-TraR A150E, P33905 = biological target: T5, MBP-TraR A150E, P33905
# MBP-TraR S160A, P33905 = biological target: T6, MBP-TraR S160A, P33905
# MBP-TraR K119A, P33905 = biological target: T7, MBP-TraR K119A, P33905
# MBP-TraR F161A, P33905 = biological target: T8, MBP-TraR F161A, P33905
protein,measurement,setting,value
B1,heterodimer formation (% of wild type) (% of wild type),"MBP-TraR A157V, P33905",50
same,heterodimer formation (% of wild type) (% of wild type),"MBP-TraR R206Q, P33905",71
same,heterodimer formation (% of wild type) (% of wild type),"MBP-TraR T225S, P33905",43
same,heterodimer formation (% of wild type) (% of wild type),"MBP-TraR F161K, P33905",39
same,heterodimer formation (% of wild type) (% of wild type),"MBP-TraR A150E, P33905",14
same,heterodimer formation (% of wild type) (% of wild type),"MBP-TraR S160A, P33905",100
same,heterodimer formation (% of wild type) (% of wild type),"MBP-TraR K119A, P33905",94
same,heterodimer formation (% of wild type) (% of wild type),"MBP-TraR F161A, P33905",49
